As a reminder, the Km is the substrate concentration at which the rate is half of its maximum. A word on the Vmax: it is the rate approached at saturating substrate.

Data on three proteins can be found in article PMC3902948.

Sequences and labels used below:
B1: Prp43 (Saccharomyces cerevisiae S288C) (protein)
chain: MGSKRRFSSEHPDPVETSIPEQAAEIAEELSKQHPLPSEEPLVHHDAGEFKGLQRHHTSAEEAQKLEDGKINPFTGREFTPKYVDILKIRRELPVHAQRDEFLKLYQNNQIMVFVGETGSGKTTQIPQFVLFDEMPHLENTQVACTQPRRVAAMSVAQRVAEEMDVKLGEEVGYSIRFENKTSNKTILKYMTDGMLLREAMEDHDLSRYSCIILDEAHERTLATDILMGLLKQVVKRRPDLKIIIMSATLDAEKFQRYFNDAPLLAVPGRTYPVELYYTPEFQRDYLDSAIRTVLQIHATEEAGDILLFLTGEDEIEDAVRKISLEGDQLVREEGCGPLSVYPLYGSLPPHQQQRIFEPAPESHNGRPGRKVVISTNIAETSLTIDGIVYVVDPGFSKQKVYNPRIRVESLLVSPISKASAQQRAGRAGRTRPGKCFRLYTEEAFQKELIEQSYPEILRSNLSSTVLELKKLGIDDLVHFDFMDPPAPETMMRALEELNYLACLDDEGNLTPLGRLASQFPLDPMLAVMLIGSFEFQCSQEILTIVAMLSVPNVFIRPTKDKKRADDAKNIFAHPDGDHITLLNVYHAFKSDEAYEYGIHKWCRDHYLNYRSLSAADNIRSQLERLMNRYNLELNTTDYESPKYFDNIRKALASGFFMQVAKKRSGAKGYITVKDNQDVLIHPSTVLGHDAEWVIYNEFVLTSKNYIRTVTSVRPEWLIEIAPAYYDLSNFQKGDVKLSLERIKEKVDRLNELKQGKNKKKSKHSKK
B2: Prp43/Ntr1(51–110) (Saccharomyces cerevisiae S288C) (protein)
chain: MGSKRRFSSEHPDPVETSIPEQAAEIAEELSKQHPLPSEEPLVHHDAGEFKGLQRHHTSAEEAQKLEDGKINPFTGREFTPKYVDILKIRRELPVHAQRDEFLKLYQNNQIMVFVGETGSGKTTQIPQFVLFDEMPHLENTQVACTQPRRVAAMSVAQRVAEEMDVKLGEEVGYSIRFENKTSNKTILKYMTDGMLLREAMEDHDLSRYSCIILDEAHERTLATDILMGLLKQVVKRRPDLKIIIMSATLDAEKFQRYFNDAPLLAVPGRTYPVELYYTPEFQRDYLDSAIRTVLQIHATEEAGDILLFLTGEDEIEDAVRKISLEGDQLVREEGCGPLSVYPLYGSLPPHQQQRIFEPAPESHNGRPGRKVVISTNIAETSLTIDGIVYVVDPGFSKQKVYNPRIRVESLLVSPISKASAQQRAGRAGRTRPGKCFRLYTEEAFQKELIEQSYPEILRSNLSSTVLELKKLGIDDLVHFDFMDPPAPETMMRALEELNYLACLDDEGNLTPLGRLASQFPLDPMLAVMLIGSFEFQCSQEILTIVAMLSVPNVFIRPTKDKKRADDAKNIFAHPDGDHITLLNVYHAFKSDEAYEYGIHKWCRDHYLNYRSLSAADNIRSQLERLMNRYNLELNTTDYESPKYFDNIRKALASGFFMQVAKKRSGAKGYITVKDNQDVLIHPSTVLGHDAEWVIYNEFVLTSKNYIRTVTSVRPEWLIEIAPAYYDLSNFQKGDVKLSLERIKEKVDRLNELKQGKNKKKSKHSKK
B3: Prp43/Ntr1(1–120) (Saccharomyces cerevisiae S288C) (protein)
chain: MGSKRRFSSEHPDPVETSIPEQAAEIAEELSKQHPLPSEEPLVHHDAGEFKGLQRHHTSAEEAQKLEDGKINPFTGREFTPKYVDILKIRRELPVHAQRDEFLKLYQNNQIMVFVGETGSGKTTQIPQFVLFDEMPHLENTQVACTQPRRVAAMSVAQRVAEEMDVKLGEEVGYSIRFENKTSNKTILKYMTDGMLLREAMEDHDLSRYSCIILDEAHERTLATDILMGLLKQVVKRRPDLKIIIMSATLDAEKFQRYFNDAPLLAVPGRTYPVELYYTPEFQRDYLDSAIRTVLQIHATEEAGDILLFLTGEDEIEDAVRKISLEGDQLVREEGCGPLSVYPLYGSLPPHQQQRIFEPAPESHNGRPGRKVVISTNIAETSLTIDGIVYVVDPGFSKQKVYNPRIRVESLLVSPISKASAQQRAGRAGRTRPGKCFRLYTEEAFQKELIEQSYPEILRSNLSSTVLELKKLGIDDLVHFDFMDPPAPETMMRALEELNYLACLDDEGNLTPLGRLASQFPLDPMLAVMLIGSFEFQCSQEILTIVAMLSVPNVFIRPTKDKKRADDAKNIFAHPDGDHITLLNVYHAFKSDEAYEYGIHKWCRDHYLNYRSLSAADNIRSQLERLMNRYNLELNTTDYESPKYFDNIRKALASGFFMQVAKKRSGAKGYITVKDNQDVLIHPSTVLGHDAEWVIYNEFVLTSKNYIRTVTSVRPEWLIEIAPAYYDLSNFQKGDVKLSLERIKEKVDRLNELKQGKNKKKSKHSKK

Substrate in the data set: Nc1ncnc2c1ncn2[C@@H]1O[C@H](COP(=O)(O)OP(=O)(O)OP(=O)(O)O)[C@@H](O)[C@H]1O
Nature of the data set: purified protein. The conditions noted are these: no RNA, 100 mM NaCl, 10 mM Tris pH 7.5, 2 mM MgCl2.
Take B1: the Michaelis constant (Km) was found to be 11.07 ± 2.07 µM and the maximal velocity (Vmax) worked out at 2.43 µM/min.

As to B2, the Km amounted to 13.42 ± 1.93 µM and the Vmax was 9.54 µM/min.

As for B3, the Km was 16.37 ± 1.81 µM and the Vmax was 11.2 µM/min.
